This data set deals with the molecule itself. Put plainly: crystal structure; sitting-drop vapor diffusion, 16% PEG 3350, 0.2 M sodium malonate, 0.1 M Bis-Tris propane pH 8.5, 10% ethylene glycol, 1 mM DTT, 18°C; in complex with glucose and G6P; the dimer is in the asymmetric unit.

The values below come from publication PMC5803496, “The catalytic inactivation of the N-half of human hexokinase 2 and structural and biochemical characterization of its mitochondrial conformation” (Bioscience Reports, 2018).

B1: Δ16 variant of the wild-type human hexokinase 2 (enzyme, UniProt P52789 17-917, looked up)
chain: DQVQKVDQYLYHMRLSDETLLEISKRFRKEMEKGLGATTHPTAAVKMLPTFVRSTPDGTEHGEFLALDLGGTNFRVLWVKVTDNGLQKVEMENQIYAIPEDIMRGSGTQLFDHIAECLANFMDKLQIKDKKLPLGFTFSFPCHQTKLDESFLVSWTKGFKSSGVEGRDVVALIRKAIQRRGDFDIDIVAVVNDTVGTMMTCGYDDHNCEIGLIVGTGSNACYMEEMRHIDMVEGDEGRMCINMEWGAFGDDGSLNDIRTEFDQEIDMGSLNPGKQLFEKMISGMYMGELVRLILVKMAKEELLFGGKLSPELLNTGRFETKDISDIEGEKDGIRKAREVLMRLGLDPTQEDCVATHRICQIVSTRSASLCAATLAAVLQRIKENKGEERLRSTIGVDGSVYKKHPHFAKRLHKTVRRLVPGCDVRFLRSEDGSGKGAAMVTAVAYRLADQHRARQKTLEHLQLSHDQLLEVKRRMKVEMERGLSKETHASAPVKMLPTYVCATPDGTEKGDFLALDLGGTNFRVLLVRVRNGKWGGVEMHNKIYAIPQEVMHGTGDELFDHIVQCIADFLEYMGMKGVSLPLGFTFSFPCQQNSLDESILLKWTKGFKASGCEGEDVVTLLKEAIHRREEFDLDVVAVVNDTVGTMMTCGFEDPHCEVGLIVGTGSNACYMEEMRNVELVEGEEGRMCVNMEWGAFGDNGCLDDFRTEFDVAVDELSLNPGKQRFEKMISGMYLGEIVRNILIDFTKRGLLFRGRISERLKTRGIFETKFLSQIESDCLALLQVRAILQHLGLESTCDDSIIVKEVCTVVARRAAQLCGAGMAAVVDRIRENRGLDALKVTVGVDGTLYKLHPHFAKVMHETVKDLAPKCDVSFLQSEDGSGKGAALITAVACRIREAGQR
notes: wild type; Crystallised in complex with glucose and glucose-6-phosphate; also called Δ16-HK2; HK2; source: E. coli, Champion pET SUMO expression system, purified (nickel-chelating resin, Superdex 200)
Take B1: the binding result is “binds”.
